The source of these data is article doi:10.1101/2023.12.01.569544.

The experiment deals with HIV-1 capsid A14C/E45C/W184A/M185A (HIV-CA) (HIV-1). Nature of the experiment: SEC.

In turn, “HIV-1 capsid A14C/E45C/W184A/M185A (HIV-CA) (natural protein)” registered a stoichiometry N of 6.
